Source: patent publication US20110071077A1, “Thrombopoietic Compounds” (AMGEN INC., priority 2006, published 2011)
Bridge positions count the residues as written; N and C are the ends. Ends that are not written are not given here. PEG = not defined here

Assays:
human mpl receptor = biological target: T1, human mpl receptor (Homo sapiens, UniProt P40238); experiment: TPO in vitro bioassay, mitogenic assay in IL-3 dependent murine 32D cells; format: cell-based; details: for Relative Potency: in terms of EC50, numerals indicate approximately 1 log of activity
T1 construct: IL-3 dependent clone of murine 32D cells transfected with the full-length c-Mpl; expressed in transfected cells; host or cells: IL-3 dependent clone of murine 32D cells
T1 sequence (P40238 26-635): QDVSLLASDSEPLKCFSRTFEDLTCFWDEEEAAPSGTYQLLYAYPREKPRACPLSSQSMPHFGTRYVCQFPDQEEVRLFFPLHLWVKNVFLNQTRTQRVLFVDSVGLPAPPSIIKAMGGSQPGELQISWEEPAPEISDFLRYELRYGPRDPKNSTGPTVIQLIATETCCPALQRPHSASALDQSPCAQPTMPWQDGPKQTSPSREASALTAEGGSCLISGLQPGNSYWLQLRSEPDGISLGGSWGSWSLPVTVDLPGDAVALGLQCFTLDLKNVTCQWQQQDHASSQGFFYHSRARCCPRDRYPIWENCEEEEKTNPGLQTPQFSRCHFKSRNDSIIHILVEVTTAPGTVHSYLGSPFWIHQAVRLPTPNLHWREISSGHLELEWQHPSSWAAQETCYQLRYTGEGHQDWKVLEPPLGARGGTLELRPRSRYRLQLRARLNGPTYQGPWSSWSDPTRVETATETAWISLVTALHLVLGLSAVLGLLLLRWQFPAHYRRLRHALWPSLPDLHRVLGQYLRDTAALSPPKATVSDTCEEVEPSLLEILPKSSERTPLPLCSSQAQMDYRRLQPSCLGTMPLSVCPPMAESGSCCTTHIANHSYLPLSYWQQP
Protocol: Bioactivity assay. The TPO in vitro bioassay is a mitogenic assay utilizing an IL-3 dependent clone of murine 32D cells that have been transfected with human mpl receptor. This assay is described in greater detail in WO 95/26746. Cells are maintained in MEM medium containing 10% Fetal Clone II and 1 ng/ml mIL-3. Prior to sample addition, cells are prepared by rinsing twice with growth medium lacking mIL-3. An extended twelve point TPO standard curve is prepared, ranging from 3333 to 39 pg/ml. Four dilutions, estimated to fall within the linear portion of the standard curve, (1000 to 125 pg/ml), are prepared for each sample and run in triplicate. A volume of 100 μl of each dilution of sample or standard is added to appropriate wells of a 96 well microtiter plate containing 10,000 cells/well. After forty-four hours at 37° C. and 10% CO2, MTS (a tetrazolium compound which is bioreduced by cells to a formazan) is added to each well. Approximately six hours later, the optical density is read on a plate reader at 490 nm. A dose response curve (log TPO concentration vs. O.D.-Background) is generated and linear regression analysis of points which fall in the linear portion of the standard curve is performed. Concentrations of unknown test samples are determined using the resulting linear equation and a correction for the dilution factor. […]

c-Mpl receptor = biological target: T2, c-Mpl receptor (Homo sapiens, UniProt P40238); details: cited from earlier work
T2 sequence (P40238 26-635): T1 sequence (P40238 26-635)

c-Mpl = biological target: T3, c-Mpl (Homo sapiens, UniProt P40238); details: cited from earlier work
T3 sequence (P40238 26-491 limits assumed): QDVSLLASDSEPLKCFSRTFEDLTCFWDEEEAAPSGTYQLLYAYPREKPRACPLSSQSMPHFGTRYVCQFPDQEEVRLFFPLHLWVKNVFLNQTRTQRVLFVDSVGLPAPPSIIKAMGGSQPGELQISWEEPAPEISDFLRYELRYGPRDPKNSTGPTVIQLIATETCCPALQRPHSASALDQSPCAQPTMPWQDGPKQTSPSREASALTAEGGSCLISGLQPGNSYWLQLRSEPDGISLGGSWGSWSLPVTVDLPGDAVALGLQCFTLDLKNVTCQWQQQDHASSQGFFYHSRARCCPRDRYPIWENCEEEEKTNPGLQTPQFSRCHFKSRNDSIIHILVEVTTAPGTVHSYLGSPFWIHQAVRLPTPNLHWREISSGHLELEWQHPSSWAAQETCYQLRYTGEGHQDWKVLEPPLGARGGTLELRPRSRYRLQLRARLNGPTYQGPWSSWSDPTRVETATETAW

Normal female BDF1 mice = experiment: platelets in mice, 7-day micro-osmotic pumps; format: in vivo
Protocol: Mice. Normal female BDF1 approximately 10-12 weeks of age.
Bleed schedule. Ten mice per group treated on day 0, two groups started 4 days apart for a total of 20 mice per group. Five mice bled at each time point, mice were bled a minimum of three times a week. Mice were anesthetized with isoflurane and a total volume of 140-160 μl of blood was obtained by puncture of the orbital sinus. Blood was counted on a Technicon H1E blood analyzer running software for murine blood. Parameters measured were white blood cells, red blood cells, hematocrit, hemoglobin, platelets, neutrophils.
Treatments. Mice were either injected subcutaneously for a bolus treatment or implanted with 7 day micro-osmotic pumps for continuous delivery. Subcutaneous injections were delivered in a volume of 0.2 ml. Osmotic pumps were inserted into a subcutaneous incision made in the skin between the scapulae of anesthetized mice. Compounds were diluted in PBS with 0.1% BSA. All experiments included one control group, labeled “carrier” that were treated with this diluent only. The concentration of the test articles in the pumps was adjusted so that the calibrated flow rate from the pumps gave the treatment levels indicated in the graphs.
Compounds. A dose titration of the compound was delivered to mice in 7 day micro-osmotic pumps. Mice were treated with various compounds at a single dose of 100 ug/kg in 7 day osmotic pumps. Some of the same compounds were then given to mice as a single bolus injection.

Substance | Relative Potency (human mpl receptor) | in vitro bioactivity in words (human mpl receptor) | also measured
IEGPTLRQWLAARA [TMP monomer, 14-residue TPO Mimetic Peptide (Cwirla et al.)] | 1.0 |  | EC50 (c-Mpl receptor): 400 nM; IC50 (c-Mpl): 2 nM
TPO: native TPO protein, endogenous thrombopoietin | 4.0 |  | 
IEGPTLRQWLAARAARAALWQRLTPGEI [TMP C-C dimer, reference compound] | 3.5 | lower than that of the native TPO protein | EC50 (c-Mpl receptor): 0.1 nM; binding affinity (c-Mpl): 0.5 nM
IEGPTLRQALAARA-GGGGGGGG-IEGPTLRQALAARA (IEGPTLRQALAARAGGGGGGGGIEGPTLRQALAARA) [peptide 16] | 0.5 | inactive | 
TMP-GGGNGSGG-TMP (IEGPTLRQWLAARAGGGNGSGGIEGPTLRQWLAARA) [compound 21] | 4.0 | activity comparable to that of the -(Gly)8- linked analog | 
IEGPTLRQCLAARA-GGGGGGGG-IEGPTLRQCLAARA (IEGPTLRQCLAARAGGGGGGGGIEGPTRLQCLAARA) [compound 15] | 0.5 | inactive | 
TMP-GPNG-TMP (IEGPTLRQWLAARAGPNGIEGPTLRQWLAARA) [peptide 13] | 3.0 |  | increase in potency as compared to the monomer (human mpl receptor): about 100 fold

Further lines, with some results ahead:

Relative Potency (human mpl receptor) | Substance | in vitro bioactivity in words (human mpl receptor) | also measured
0.5 | peptide 14: Trp in each TMP monomer replaced with Cys, intramolecular disulfide bond between the two cysteines (IEGPTLRQCLAARAGGGGGGGGIEGPTLRQCLAARA; disulfide 9-31) | inactive | 
5.0 | TMP-GGGC(PEG)GGGG-TMP (IEGPTLRQWLAARAGGGC(PEG)GGGGIEGPTLRQWLAARA; reading uncertain) [peptide 20] | even higher in vitro bioactivity as compared to their unpegylated counterparts | activity compared with unpegylated rHu-MGDF (Normal female BDF1 mice; 10 μg/kg/day): about equally active as 100 μg/kg/day unpegylated rHu-MGDF; activity relative to maximum (Normal female BDF1 mice; 10 μg/kg/day): about 50%; dose of maximum effect (Normal female BDF1 mice; dose response, data not shown): 100 µg/kg/day; lowest dose at which activity could be seen (Normal female BDF1 mice; mouse, in vivo): 1 µg/kg/day
4.0 | TMP-GGGKGGGG-TMP (IEGPTLRQWLAARAGGGKGGGGIEGPTLRQWLAARA) [peptide 17a] |  | 
5.0 | TMP-GGGK(PEG)GGGG-TMP (IEGPTLRQWLAARAGGGK(PEG)GGGGIEGPTLRQWLAARA; reading uncertain) [peptide 19] | even higher in vitro bioactivity as compared to their unpegylated counterparts | 
4.0 | TMP-GGGCGGGG-TMP (IEGPTLRQWLAARAGGGCGGGGIEGPTLRQWLAARA) [peptide 18] |  | 
